According to US20150329642A1 (Genmab, published 2015):

Columns and labels:
cMetECDHis [1] = target: T1, cMetECDHis (human, UniProt P08581 25-932, limits assumed, biotinylated in the cross-block ELISA of Example 17); test: cross-block ELISA; competitor 101
T1 construct: Expressed in HEK-293F cells; also called soluble cMetECDHis; biotinylated cMetECDHis
Experimental: (§1) First, the optimal coating concentrations of the tested anti-c-Met antibodies and the optimal cMetECDHis concentration were determined. Therefore, ELISA wells were coated overnight at 4° C. with anti-c-Met HuMabs serially diluted in PBS (8 μg/mL in 2-fold dilutions). Next, the ELISA wells were washed with PBST (PBS supplemented with 0.05% Tween-20 [Sigma-Aldrich, Zwijndrecht, The Netherlands]) and blocked for one hour at room temperature (RT) with PBSTC (PBST supplemented 2% [v/v] chicken serum [Gibco, Paisley, Scotland]). Subsequently, the ELISA wells were washed with PBST and incubated for one hour at RT with biotinylated cMetECDHis serially diluted in PBSTC (1 μg/mL in 2-fold dilutions). Unbound biotinylated cMetECDHis was washed away with PBST, and bound biotinylated cMetECDHis was incubated for one hour at RT with 0.1 μg/mL Streptavidin-poly-HRP (Sanquin, Amsterdam, The Netherlands) diluted in PBST.
(§2) ELISA wells were coated with anti-c-Met antibody at a sub-optimal dose as described above. After blocking of the ELISA wells, they were incubated with the predetermined concentration of biotinylated cMetECDHis in the presence of an excess of anti-c-Met antibody. The reaction was developed as described above. Residual binding was expressed as a percentage relative to the binding observed in the absence of competitor antibody.

cMetECDHis [2] = target: T1, cMetECDHis; test: cross-block ELISA; competitor 064
Experimental: as §1, §2

cMetECDHis [3] = target: T1, cMetECDHis; test: cross-block ELISA; competitor 069
Experimental: as §1, §2

cMetECDHis [4] = target: T1, cMetECDHis; test: cross-block ELISA; competitor 181
Experimental: as §1, §2

cMetECDHis [5] = target: T1, cMetECDHis; test: cross-block ELISA; competitor 058
Experimental: as §1, §2

cMetECDHis [6] = target: T1, cMetECDHis; test: cross-block ELISA; competitor 022
Experimental: as §1, §2

cMetECDHis [7] = target: T1, cMetECDHis; test: cross-block ELISA; competitor 008
Experimental: as §1, §2

cMetECDHis [8] = target: T1, cMetECDHis; test: cross-block ELISA; competitor 098
Experimental: as §1, §2

cMetECDHis [9] = target: T1, cMetECDHis; test: cross-block ELISA; competitor 068
Experimental: as §1, §2

cMetECDHis [10] = target: T1, cMetECDHis; test: BLI (Octet); antibody captured, cMetECDHis in solution
Summary of the method: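 Bio-layer interferometry: anti-c-Met IgG immobilized via anti-human Fc sensors, exposed roughly 10 min to 10 μg/mL HEK293-made cMetECDHis, then moved to kinetics buffer for off-rate. Affinity derived with a 1:1 Langmuir model.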

cMetECDHis [11] = target: T1, cMetECDHis; test: cross-block ELISA; competitor 006
Experimental: as §1, §2

cMetECDHis [12] = target: T1, cMetECDHis; test: cross-block ELISA; competitor 045
Experimental: as §1, §2

cMetECDHis [13] = target: T1, cMetECDHis; test: cross-block ELISA; competitor 5D5
Experimental: as §1, §2

cMetECDHis [14] = target: T1, cMetECDHis; test: cross-block ELISA; competitor 062
Experimental: as §1, §2

cMetECDHis [15] = target: T1, cMetECDHis; test: cross-block ELISA; competitor 024
Experimental: as §1, §2

cMetECDHis [16] = target: T1, cMetECDHis; test: cross-block ELISA; competitor 035
Experimental: as §1, §2

cMetECDHis [17] = target: T1, cMetECDHis; test: cross-block ELISA; competitor 005
Experimental: as §1, §2

Row | Binder | residual binding, % of no competitor (cMetECDHis [1]) [%] | residual binding, % of no competitor (cMetECDHis [2]) [%] | residual binding, % of no competitor (cMetECDHis [3]) [%] | residual binding, % of no competitor (cMetECDHis [4]) [%] | residual binding, % of no competitor (cMetECDHis [5]) [%] | residual binding, % of no competitor (cMetECDHis [6]) [%] | residual binding, % of no competitor (cMetECDHis [7]) [%] | residual binding, % of no competitor (cMetECDHis [8]) [%] | residual binding, % of no competitor (cMetECDHis [9]) [%] | Kd (cMetECDHis [10]) [nM] | koff (cMetECDHis [10]) [s⁻¹] | kon (cMetECDHis [10]) [M⁻¹ s⁻¹] | residual binding, % of no competitor (cMetECDHis [11]) [%] | residual binding, % of no competitor (cMetECDHis [12]) [%] | residual binding, % of no competitor (cMetECDHis [13]) [%] | residual binding, % of no competitor (cMetECDHis [14]) [%] | residual binding, % of no competitor (cMetECDHis [15]) [%] | residual binding, % of no competitor (cMetECDHis [16]) [%] | residual binding, % of no competitor (cMetECDHis [17]) [%]
1 | anti-c-Met HuMab 101 (IgG1) (antibody, V domains shown) VH: QVQLVQSGGEVKKPGASVKVSCKASGYTFTRHGITWVRQAPGQGLEWMGWISADNGNTNYAQKFQDRVTMTTDTSTSTAYMELRSLRSDDTAVYFCARVFRYFDWLLPYFDYWGQGTLVTVST VL: not shown | 3.7 | 37.4 | 9.5 | 41.9 | 93.1 | 90.7 | 94 | 9.7 | 45.9 | 1.27 | 0.000214 | 169000 | 89.7 | 94.7 | 97.2 | 36.9 | 40.5 | 96.7 | 91.5
2 | IgG1-1016-058 (antibody, V domains shown, also called IgG1-058; TH1016-058) VH: EVQLVESGGGLVKPGGSLKLSCAASGFTFSDYYMYWVRQTPEKRLEWVATISDDGSYTYYPDSVKGRFTISRDNAKNNLYLQMSSLKSEDTAMYYCAREGLYYYGSGSYYNQDYWGQGTLVTVSS VL: AIQLTQSPSSLSASVGDRVTITCRASQGLSSALAWYRQKPGKAPKLLIYDASSLESGVPSRFSGSGSGTDFTLTISSLQPEDFATYYCQQFTSYPQITFGQGTRLEIK | 104 | 109 | 113 | 121 | 4 | 6.8 | 90.2 | 112 | 119 | 2.7 | 0.00125 | 464000 | 43.6 | 112 | 2.8 | 109 | 109 | 90.1 | 31.4
